Experimental data reported in article PMC5663475, “SAV1 promotes Hippo kinase activation through antagonizing the PP2A phosphatase STRIPAK” (eLife, 2017).
Non-standard residues stand in square brackets, D forms with d. Residues, ends and D or L forms follow the SMILES beside them. pT = C[C@@H](OP(=O)(O)O)[C@H](N)C(=O)O

Assays:
MOB1^33-216 = target: T1, MOB1^33-216 (Homo sapiens, UniProt Q9H8S9); experiment: ITC, MOB1^33-216 with phospho-MST2 peptides; type: binding; conditions: MicroCal iTC200, 20 °C, 20 mM Tris pH 8.0, 50 mM NaCl, 50 µM protein titrated with 500 µM peptide, measured as controls
T1 construct: recombinant MOB1^33-216 and pT378-MST2 peptides
T1 sequence (Q9H8S9 33-216): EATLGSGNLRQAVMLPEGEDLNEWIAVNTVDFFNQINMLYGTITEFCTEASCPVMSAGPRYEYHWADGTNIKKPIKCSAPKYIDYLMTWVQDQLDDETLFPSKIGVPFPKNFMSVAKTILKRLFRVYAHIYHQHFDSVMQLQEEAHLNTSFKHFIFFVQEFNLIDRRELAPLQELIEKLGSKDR
Experimental: The binding affinities between purified recombinant human SLMAP-FHA (residues 1–140) and the phospho-MST2 peptides were measured using a MicroCal iTC200 calorimeter (GE Healthcare) at 20 °C. The binding affinities between recombinant MOB1^33-216 and pT378-MST2 peptides were measured as controls. Ratio of protein to peptide concentration was 1:10 for each experiment. A 50 µM SLMAP-FHA or MOB1^33-216 sample in the buffer containing 20 mM Tris, pH 8.0, 50 mM NaCl was titrated with 500 µM of phospho-MST2 peptide in the same buffer. All phospho-MST2 peptides were synthesized with the following sequences: pT325-MST2^320-329, ELDSHpTMVKT; pT336-MST2^331-340, VESVGpTMRAT; pT378-MST2^373-382, EEEDGpTMKRN; and pT378-MST2^371-401, DEEEEDGp[…]. Due to low solubility of pT325-MST2^320-329, 5% (v/v) DMSO was added to both protein and peptide buffers. Peptide concentration was measured using the spectrophotometer at wavelength λ = 205 nm. In all cases, thermograms were integrated using NITPIC method ([Keller et al., 2012]), imported to the SEDPHAT software ([Zhao et al., 2015]), and binding-model fits (A + B < ->AB) were made by fixing the protein concentration adjustment coefficients and allowing the software to adjust peptide concentration by a correction coefficient, as it is not 100% accurate due to the nature of the concentration measurements. […]

human SAV1 WW2 (human) = human SAV1 WW2 (human) (UniProt Q9H4B6); experiment: SEC; recombinant SAV1 WW1 and WW2 on a Superdex 75 gel filtration column
SLMAP = SLMAP (UniProt Q14BN4); experiment: anti-FLAG IP, anti-SLMAP blot; conditions: reference: MST2 wild type; sites T325,T336,T378
[1] = target: T2, MST2-FL (recombinant full-length MST2) (human, UniProt Q13188 1-491); experiment: pull-down; GST-SLMAP FHA on glutathione-Sepharose beads as bait, purified MST2 proteins in TBS (50 mM Tris pH 7.5, 150 mM NaCl) with 0.05% Tween, 2 h; Coomassie-stained gel; conditions: both partners purified
T2 construct: MST2, human, full length; also called full-length (FL) MST2; source: E. coli BL21 (DE3)-T1R, purified; alone or co-expressed and co-purified with SAV1 C-terminal fragments
T2 sequence (looked up): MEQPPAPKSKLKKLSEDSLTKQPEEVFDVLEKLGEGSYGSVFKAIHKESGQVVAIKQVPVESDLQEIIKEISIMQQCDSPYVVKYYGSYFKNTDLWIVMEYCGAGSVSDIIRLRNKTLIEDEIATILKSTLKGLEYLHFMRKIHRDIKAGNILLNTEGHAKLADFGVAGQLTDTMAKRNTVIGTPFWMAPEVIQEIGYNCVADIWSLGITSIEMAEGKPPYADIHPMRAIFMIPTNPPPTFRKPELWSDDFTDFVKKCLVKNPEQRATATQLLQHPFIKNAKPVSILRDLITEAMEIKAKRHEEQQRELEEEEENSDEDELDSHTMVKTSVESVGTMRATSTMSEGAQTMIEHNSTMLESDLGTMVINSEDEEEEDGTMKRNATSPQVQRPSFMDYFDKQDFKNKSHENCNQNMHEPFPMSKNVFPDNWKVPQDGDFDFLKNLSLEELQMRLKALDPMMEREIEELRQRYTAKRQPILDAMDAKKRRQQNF

[2] = target: PP2A A subunit (recombinant) (human) (UniProt P30153)
PP2A A-C = experiment: In vitro PP2A inhibition assay (dephosphorylation of MST2 pT180); type: biochemical; conditions: 0.1 µM PP2A A-C, 1 µM MST2 KD, quantitative Western blot
Experimental: For PP2A A-C phosphatase inhibition assays, 0.1 µM PP2A A-C was mixed with the indicated concentrations of SAV1^1-90 and incubated at room temperature for 15 min. […] After 30 min incubation, 15 µl reaction mixture was quenched by the addition of the same volume of 2X SDS sample buffer and boiled for 5 min. The remaining pT180 of MST2 was analyzed by quantitative Western blot using a specific antibody against pT180 of MST2.

PP2A A subunit = experiment: Gel filtration co-fractionation of SAV1^1-90 with PP2A A subunit; type: binding; conditions: Superdex 200 gel filtration; PP2A A : SAV1^1-90 1:6 molar ratio; 20 mM Tris pH 8.0, 50 mM NaCl, 1 mM TCEP
Experimental: The N-terminal fragment of SAV1^1-90 was purified by denaturation method using 8 M urea according to the manufacturer’s instructions (Qiagen). SAV1^1-90 was refolded overnight at 4°C in a buffer containing 50 mM Tris (pH 7.5), 150 mM NaCl, 5 mM MgCl2, and 1 mM DTT. To obtain the PP2A A and SAV1^1-90 complex, PP2A A was mixed with refolded SAV1^1-90 at a 1:6 molar ratio and further purified by a Superdex 200 column equilibrated with a buffer containing 20 mM Tris (pH 8.0), 50 mM NaCl, and 1 mM TCEP. For comparison, PP2A A and SAV1^1-90 alone was run under the same condition, respectively.

[3] = target: the molecule itself; experiment: AUC + SEC; sedimentation velocity at 4 °C, 50,000 rpm, 20 mM Tris pH 8.0, 200 mM NaCl, 5 mM MgCl2; gel filtration on Superdex 200; co-expressed and co-purified MST2-FL/SAV1 fragment complexes
MST2 [4] = experiment: MST2-SAV1 autophosphorylation (pT180); type: biochemical, human; conditions: 2.5 µM MST2-SAV1 complex, dephosphorylated by 0.5 µM PP2A A-C, then 5 µM okadaic acid; 2 mM ATP, anti-pT180 blot; at least two independent experiments
Experimental: For assaying MST2-SAV1 autophosphorylation, 2.5 µM MST2-SAV1-ΔN198 or MST2-SAV1-ΔN268 was dephosphorylated by 0.5 µM PP2A A-C core complex for 30 min at room temperature. Okadaic acid was then added to a final concentration of 5 µM and the reaction mixture was incubated on ice for another 30 min. The reaction mixture was diluted by a ratio of 1:5 at room temperature with a kinase reaction buffer containing 50 mM Tris (pH 7.5), 150 mM NaCl, 5 mM MgCl2, 2 mM ATP, and 1 mM DTT. At different time intervals, autophosphorylation was terminated by adding 2X SDS loading buffer and boiling for 5 min in 100 °C water bath. All samples were separated by SDS-PAGE and blotted by a specific antibody against pT180 of MST2.

MST2 [5] = experiment: In vitro MST2 kinase assay using MOB1 as substrate; type: biochemical, human; conditions: 0.5 nM MST2, 0.4 µM MOB1, pT35-MOB1 quantitative Western blot; two biological replicates
Experimental: For in vitro kinase assays, 0.4 μM MST2-FL or MST2-ΔL was incubated in the kinase reaction buffer containing 50 mM Tris (pH 7.5), 150 mM NaCl, 10 mM MgCl2, 1 mM ATP, 1 mM DTT, and 0.1 μCi/μl γ-^32P-ATP with 40 μM myelin basic protein (MBP). At different time intervals, an aliquot of reaction mixture was added with equal volume of 2X SDS sample buffer and followed by boiling for 5 min in 100 °C water bath. All samples were separated by SDS-PAGE and analyzed by autoradiography. For in vitro kinase assays using MOB1 as substrate, 0.5 nM MST2 was incubated with 0.4 µM recombinant purified MOB1 in the kinase reaction buffer. The phosphorylated MOB1 was analyzed by quantitative Western blotting using a specific antibody against pT35 of MOB1 (Cell Signaling). The signals were quantified with the Odyssey LI-COR imaging system. For in vitro kinase assays using GST-MST2 D146N as substrate, the kinase reaction was performed with MST2 KD for 30 min at room temperature.

PP2A A subunit (recombinant) (human), sequence (P30153 whole entry): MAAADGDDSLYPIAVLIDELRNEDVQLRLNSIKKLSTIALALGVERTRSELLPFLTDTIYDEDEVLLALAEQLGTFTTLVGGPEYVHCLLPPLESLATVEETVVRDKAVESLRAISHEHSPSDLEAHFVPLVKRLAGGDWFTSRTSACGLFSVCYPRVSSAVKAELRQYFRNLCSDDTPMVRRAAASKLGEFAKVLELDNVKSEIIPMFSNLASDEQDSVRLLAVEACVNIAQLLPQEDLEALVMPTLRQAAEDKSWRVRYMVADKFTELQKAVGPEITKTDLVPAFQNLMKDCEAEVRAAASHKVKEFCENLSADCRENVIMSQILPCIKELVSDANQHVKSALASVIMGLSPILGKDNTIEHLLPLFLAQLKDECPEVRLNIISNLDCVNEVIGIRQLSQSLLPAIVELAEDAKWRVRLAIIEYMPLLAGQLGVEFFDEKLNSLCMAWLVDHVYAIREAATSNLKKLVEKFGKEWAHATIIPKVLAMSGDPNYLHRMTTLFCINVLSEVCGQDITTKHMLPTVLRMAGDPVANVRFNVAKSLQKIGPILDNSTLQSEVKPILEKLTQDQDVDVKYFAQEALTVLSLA

CSCC[C@H](NC(=O)[C@@H](NC(=O)CNC(=O)[C@H](CC(=O)O)NC(=O)[C@H](CCC(=O)O)NC(=O)[C@H](CCC(=O)O)NC(=O)[C@@H](N)CCC(=O)O)[C@@H](C)OP(=O)(O)O)C(=O)N[C@@H](CCCCN)C(=O)N[C@@H](CCCNC(=N)N)C(=O)N[C@@H](CC(N)=O)C(=O)O [pT378-MST2^373-382] (H-EEEDG[pT]MKRN-OH)
Kd (MOB1^33-216): 9.95 µM

human SAV1 WW2 (from UniProt Q9H4B6 1-383) (domain or fragment)
stoichiometry N (human SAV1 WW2 (human)): 2

MST2 (from UniProt Q13188) MST2 3TA
binding against the reference (SLMAP): lost

CSCC[C@H](NC(=O)[C@H](Cc1ccccc1)NC(=O)[C@H](CO)NC(=O)[C@@H]1CCCN1C(=O)[C@H](CCCNC(=N)N)NC(=O)[C@H](CCC(N)=O)NC(=O)[C@@H](NC(=O)[C@H](CCC(N)=O)NC(=O)[C@@H]1CCCN1C(=O)[C@H](CO)NC(=O)[C@@H](NC(=O)[C@H](C)NC(=O)[C@H](CC(N)=O)NC(=O)[C@H](CCCNC(=N)N)NC(=O)[C@H](CCCCN)NC(=O)[C@H](CCSC)NC(=O)[C@@H](NC(=O)CNC(=O)[C@H](CC(=O)O)NC(=O)[C@H](CCC(=O)O)NC(=O)[C@H](CCC(=O)O)NC(=O)[C@H](CCC(=O)O)NC(=O)[C@H](CCC(=O)O)NC(=O)[C@@H](N)CC(=O)O)[C@@H](C)OP(=O)(O)O)[C@@H](C)O)C(C)C)C(=O)N[C@@H](CC(=O)O)C(=O)N[C@@H](Cc1ccc(O)cc1)C(=O)N[C@@H](Cc1ccccc1)C(=O)N[C@@H](CC(=O)O)C(=O)N[C@@H](CCCCN)C(=O)N[C@@H](CCC(N)=O)C(=O)N[C@@H](CC(=O)O)C(=O)O [pT378-MST2^371-401] (H-DEEEEDG[pT]MKRNATSPQVQRPSFMDYFDKQD-OH)
Kd (MOB1^33-216): 0.296 µM

B1: GST-SLMAP FHA (residues 1–140) (domain or fragment, human, UniProt Q14BN4 1-140, looked up)
chain: MPSALAIFTCRPNSHPFQERHVYLDEPIKIGRSVARCRPAQNNATFDCKVLSRNHALVWFDHKTGKFYLQDTKSSNGTFINSQRLSRGSEESPPCEILSGDIIQFGVDVTENTRKVTHGCIVSTIKLFLPDGMEARLRSD
notes: SLMAP, human, FHA domain, residues 1-140; also called GST-SLMAP FHA fusion protein; not shown: GST, N-terminal, kept
binding result [1]: binds

B2: SAV1^1-90 (recombinant) (domain or fragment)
chain: MLSRKKTKNEVSKPAEVQGKYVKKETSPLLRNLMPSFIRHGPTIPRRTDICLPDSSPNAFSTSGDVVSRNQSFLRTPIQRTPHEIMRRES
dephosphorylation of MST2 pT180 (1 µM MST2 kinase domain) by 0.1 µM PP2A A-C core in vitro, SAV1 1-90 at the indicated concentrations [2]: 100 µM

B3: SAV1 1–90: N-terminal fragment of SAV1 (residues 1–90), recombinant, refolded (protein)
chain: MLSRKKTKNEVSKPAEVQGKYVKKETSPLLRNLMPSFIRHGPTIPRRTDICLPDSSPNAFSTSGDVVSRNQSFLRTPIQRTPHEIMRRES
modifications: left off: FLAG, end not stated, kept
inhibition of PP2A A-C dephosphorylation of MST2 pT180 (PP2A A-C; 15 min pre-incubation with SAV1^1-90 at room temperature, 20 mM Tris pH 8.0, 100 mM NaCl, 30 min): blocked the dephosphorylation of MST2 pT180 by PP2A A-C | concentration needed for PP2A A-C inhibition (PP2A A-C; "Very high and non-physiological concentrations" needed): 100 µM | co-fractionation with recombinant PP2A A subunit (PP2A A subunit): co-fractionated

B4: SAV1-ΔN198 (domain or fragment, human, UniProt Q9H4B6 199-383, looked up)
chain: LPLPPGWSVDWTMRGRKYYIDHNTNTTHWSHPLEREGLPPGWERVESSEFGTYYVDHTNKKAQYRHPCAPSVPRYDQPPPVTYQPQQTERNQSLLVPANPYHTAEIPDWLQVYARAPVKYDHILKWELFQLADLDTYQGMLKLLFMKELEQIVKMYEAYRQALLTELENRKQRQQWYAQQHGKNF
notes: SAV1, human, N-terminal 198 residues deleted (WW1, WW2 and SARAH domains); also called SAV1 ∆N198; SAV1 fragment containing both WW domains and the SARAH domain; source: E. coli BL21 (DE3)-T1R, co-expressed with MST2, purified (glutathione-Sepharose, TEV, Superdex 200); not shown: GST, N-terminal, cleaved
binding result [3]: binds

B5: SAV1 ∆N198: SAV1 mutant which contains WW1/2 and SARAH domains (protein)
chain: LPLPPGWSVDWTMRGRKYYIDHNTNTTHWSHPLEREGLPPGWERVESSEFGTYYVDHTNKKAQYRHPCAPSVPRYDQPPPVTYQPQQTERNQSLLVPANPYHTAEIPDWLQVYARAPVKYDHILKWELFQLADLDTYQGMLKLLFMKELEQIVKMYEAYRQALLTELENRKQRQQWYAQQHGKNF
modifications: left off: GST, N-terminal, cleaved
notes: SAV1 mutant which contains WW1/2 and SARAH domains
MST2 activation (T180 autophosphorylation) in vitro (MST2 [4]): could support MST2 auto-activation | stimulation of MST2 kinase activity toward MOB1 (MST2 [5]): did not stimulate the MST2 kinase activity toward MOB1
